From article PMC3410417 (The Journal of Cell Biology, 2012)

Target: Myc-mGlu5a-Rluc8 (UniProt P31424-2 21-1171)
Test: FRET or BRET

B1: YFP-Homer3 (natural protein, UniProt Q9Z2X5 1-358, looked up)
chain: MSTAREQPIFSTRAHVFQIDPATKRNWIPAGKHALTVSYFYDATRNVYRIISIGGAKAIINSTVTPNMTFTKTSQKFGQWADSRANTVYGLGFGSEQQLTQFAEKFQEVKEAARLAREKSQDGGELTSTALAMASHQVPPSPLVSTNGPEEKLFRSQSADAPGPTERERLKKMLSEGSVGEVQWEAEFFALQDSNQRLAGALREANAAATQWRQQLEVQRAEAEHLRQRVAELEAQVAAEPVRAGEKEATSQSVEQLEARVQTKDQEIQTLKNQSTGPREAPDTAEREETQQQVQDLETRNAELEQQLRAMESNLEEARAERERARAEVGRAAQLLDVRLFELSELREGLARLAEAAP
BRET ratio in the spine before TAT-Homer1a (% of mean BRET in the shaft): 364%
